Target: Biotinylated SARS-CoV-2 S protein RBD with a C-terminal AviTag (SARS-CoV-2) (UniProt P0DTC2)
Test: BLI

Chain of NIH-CoVnb-112 (VHH) (VHH): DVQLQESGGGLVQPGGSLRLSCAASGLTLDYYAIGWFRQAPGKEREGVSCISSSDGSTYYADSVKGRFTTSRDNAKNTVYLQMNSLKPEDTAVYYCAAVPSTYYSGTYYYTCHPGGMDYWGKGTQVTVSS

In the case of NIH-CoVnb-112 (VHH), the Kd is reported as 4.9 nM, the koff is reported as 0.000654 s⁻¹ and the kon is reported as 130000 M⁻¹ s⁻¹.
